The text below walks through data of US20210388081A1 (Memorial Sloan Kettering, published 2021).

The target in experiment [1] is T1, Fc Receptor-like 5 (FcRL5), full length, overexpressed on 3T3 or Raji cells (human, UniProt Q96RD9 16-977).
T1 construct: also called 3T3-FcRL5
T1 sequence: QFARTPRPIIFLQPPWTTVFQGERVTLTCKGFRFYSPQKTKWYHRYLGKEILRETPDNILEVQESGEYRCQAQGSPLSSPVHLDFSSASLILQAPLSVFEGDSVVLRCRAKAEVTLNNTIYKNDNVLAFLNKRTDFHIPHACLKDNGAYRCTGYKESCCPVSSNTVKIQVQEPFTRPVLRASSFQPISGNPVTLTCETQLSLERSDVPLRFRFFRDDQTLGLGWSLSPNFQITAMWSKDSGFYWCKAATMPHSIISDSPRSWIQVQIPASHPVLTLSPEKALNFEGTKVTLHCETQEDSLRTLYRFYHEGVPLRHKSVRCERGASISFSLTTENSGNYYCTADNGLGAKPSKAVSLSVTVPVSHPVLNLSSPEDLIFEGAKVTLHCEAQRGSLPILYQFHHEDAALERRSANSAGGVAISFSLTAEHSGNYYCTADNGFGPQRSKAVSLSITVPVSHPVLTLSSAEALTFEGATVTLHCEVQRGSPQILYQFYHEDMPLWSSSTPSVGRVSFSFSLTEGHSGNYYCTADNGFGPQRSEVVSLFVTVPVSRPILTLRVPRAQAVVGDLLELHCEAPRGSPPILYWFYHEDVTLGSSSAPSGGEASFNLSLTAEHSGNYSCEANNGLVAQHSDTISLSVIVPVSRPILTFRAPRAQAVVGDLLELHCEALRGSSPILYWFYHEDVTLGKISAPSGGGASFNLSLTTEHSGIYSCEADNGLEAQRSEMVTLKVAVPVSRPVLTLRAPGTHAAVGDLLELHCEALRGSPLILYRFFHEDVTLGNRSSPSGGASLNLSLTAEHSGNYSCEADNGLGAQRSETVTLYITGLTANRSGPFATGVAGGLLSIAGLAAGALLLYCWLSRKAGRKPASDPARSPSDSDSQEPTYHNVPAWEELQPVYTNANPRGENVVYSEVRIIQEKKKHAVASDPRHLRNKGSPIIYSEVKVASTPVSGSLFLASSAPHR
The experiment can be described thus: phage clone screening on cells. The essentials:
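scFv phage clones were incubated with live 3T3 cells overexpressing full-length FcRL5, then detected with mouse anti-M13 mAb and PE-anti-mouse Ig by flow cytometry. 3T3 cells expressing FcRL1, 2, 3, 4 or 6 served as negative-control targets.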

Experiment [2] concerns the target T2, FcRL1, overexpressed on 3T3 cells (UniProt Q96LA6 17-429, limits assumed).
T2 construct: whole, on cells
T2 sequence (looked up): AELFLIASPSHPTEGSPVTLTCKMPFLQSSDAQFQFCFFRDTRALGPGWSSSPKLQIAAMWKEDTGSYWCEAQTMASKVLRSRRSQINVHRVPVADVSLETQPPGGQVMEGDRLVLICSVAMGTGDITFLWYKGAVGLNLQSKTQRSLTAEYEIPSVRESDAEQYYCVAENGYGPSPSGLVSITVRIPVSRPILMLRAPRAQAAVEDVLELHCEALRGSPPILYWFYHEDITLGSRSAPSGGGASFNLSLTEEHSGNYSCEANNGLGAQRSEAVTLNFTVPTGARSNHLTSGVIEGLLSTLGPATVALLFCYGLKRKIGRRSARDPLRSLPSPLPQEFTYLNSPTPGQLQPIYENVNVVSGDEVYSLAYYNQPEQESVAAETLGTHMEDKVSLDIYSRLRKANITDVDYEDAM
The experiment can be described thus: phage clone on 3T3-FcRL1 cells.

B1: ET200-069 (scFv)
scFv: QSVVTQPPSASGTPGQRVTISCSGSSSNIGSNYVYWYQQLPGTAPKLLIYSNNQRPSGVPDRFSGSKSGTSASLAISGLRSEDEADYYCAAWDDSLSGYVFGTGTKLTVLGSRGGGGSGGGGSGGGGSLEMAQVQLQQWGAGLLKPSETLSLTCAVYGGSFSGYYWSWIRQPPGKGLEWIGEINHSGSTNYNPSLKSRVTISVDTSKNQFSLKLSSVTAADTAVYYCARLYEGGYHGWGSWLSSDSWGQGTLVTVSSTSGQAGQHHHHHHGAYPYDVPDYAS
notes: screened as phage clone; entry is VL-linker-VH-His tag-HA tag; also called ET200-69
On to B1, for which the binding result in experiment [1] is “binds”; in experiment [2] it was “no binding”.

B2: ET200-100 (scFv)
scFv: NFMLTQPHSVSESPGKTVTISCTRSSGSIASNFVQWYQQRPGSAPTPMIYEDNNRPPGVPDRFSASVDSSSNSASLTISGLKTEDEADYYCQSYDTSNVVFGGGTKLTVLGSRGGGGSGGGGSGGGGSLEMAEVQLVESGGGLVQPGGSLRLSCAASGFTFSSYEMNWVRQAPGKGLEWVSYISSSGSTIYYADSVKGRFTISRDNAKNSLYLQMNSLRAEDTAVYYCARWDYGMDVWGQGTTVTVSSTSGQAGQHHHHHHGAYPYDVPDYAS
notes: screened as phage clone; entry is VL-linker-VH-His tag-HA tag
B2: the values for the binding result in experiment [1] and in experiment [2] were “binds” and “no binding”, respectively.

B3: ET200-104 (scFv)
scFv: NFMLTQPHSVSESPGKTVTISCTRSSGSIASNYVQWYQQRPGSAPTTVIYEDNQRPSGVPDRFSGSIDSSSNSASLTISGLKTEDEADYYCQSYDSSNVVFGGGTKVTVLGSRGGGGSGGGGSGGGGSLEMAEVQLVESGGGLVQPGGSLRLSCAASGFTFSSYEMNWVRQAPGKGLEWVSYISSSGSTIYYADSVKGRFTISRDNAKNSLYLQMNSLRAEDTAVYYCARWDYGMDVWGQGTTVTVSSTSGQAGQHHHHHHGAYPYDVPDYAS
notes: as for B2
Turning to B3, the binding result in experiment [1] is “binds”; in experiment [2], “no binding”.

B4: ET200-079 (scFv)
scFv: SYELTQPPSASGTPGQRVTISCSGSSSNIGSNYVYWYQQLPGTAPKLFIYRNNQRPSGVPDRFSGSKSGTSASLAISGLRSEDEADYYCAAWDDSLSGYLFGTGTKVTVLGSRGGGGSGGGGSGGGGSLEMAEVQLVESGGGLVQPGRSLRLSCAASGFTFDDYAMHWVRQAPGKGLEWVSGISWNSGSIGYADSVKGRFTISRDNAKNSLYLQMNSLRAEDTALYYCANGDSNYYYGMDVWGQGTTVTVSSTSGQAGQHHHHHHGAYPYDVPDYAS
notes: as for B2
Regarding B4, the binding result in experiment [1] was “binds”; in experiment [2], “no binding”.

B5: ET200-102 (scFv)
scFv: QSVVTQPPSVSAAPGQKVTISCSGSSSNIGNNYVSWYQQLPGTAPKLLIYDNNKRPSGIPDRFSGSKSGTSATLGITGLQTGDEADYYCGTWDSSLSAYVFGTGTKVTVLGSRGGGGSGGGGSGGGGSLEMAQVQLVQSGAEVKKPGASVKVSCKASGYTFTNYALHWVRQAPGQGLEWMAWINGGNGNTKYSQNFQGRVTITRDTSASTAYMELSSLRSEDTAVYYCAKPEETAGTIHFDYWGQGTPVTVSSTSGQAGQHHHHHHGAYPYDVPDYAS
notes: as for B2
With B5, the binding result in experiment [1] is listed as “binds”; in experiment [2], “no binding”.

B6: ET200-081 (scFv)
scFv: QSALTQPASVSGSPGQSITISCTGTSSDIGGYNYVSWYQQHPGKAPKLMIYDVSNRPSGVSNRFSGSKSGNTASLTISGLQAEDEADYYCISYTRTWNPYVFGSGTKVTVLGSRGGGGSGGGGSGGGGSLEMAEVQLVQSGGGVVQPGGSLRLSCAASGFTFDDYAMHWVRQAPGKGLEWVSLISGDGGSTYYADSVKGRFTISRDNSKNSLYLQMNSLRTEDTALYYCAKDRAAAGYYYYGMDVWGQGTTVTVSSTSGQAGQHHHHHHGAYPYDVPDYAS
notes: as for B2
With B6, the binding result in experiment [1] is on record as “binds”; in experiment [2], “no binding”.

B7: ET200-103 (scFv)
scFv: QAVLTQPHSVSESPGKTVTISCTRSSGSIASNYVQWYQQRPGSAPTTVIYEDNQRPSGVPDRFSGSIDSSSNSASLTISGLKTEDEADYYCQSYDSTITVFGGGTKLTVLGSRGGGGSGGGGSGGGGSLEMAQVQLVQSGAEVKKPGSSVKVSCKASGGTFSSYAISWVRQAPGQGLEWMGGIIPIFGTANYAQKFQGRVTITADESTSTAYMELSSLRSEDTAVYYCAGEGYYDSSGYSNGDAFDIWGQGTMVTVSSTSGQAGQHHHHHHGAYPYDVPDYAS
notes: as for B2
With B7, the binding result in experiment [1] is given as “binds”; in experiment [2], “no binding”.

B8: ET200-099 (scFv)
scFv: QSVLTQPPSASGTPGQRVTISCSGSSSNIGSNTVNWYQQLPGTAPKLLIYSNDQRPSGVPDRFSGSKSGTSASLAISGLQSEDEADYYCASWDDSLNGRYVFGTGTKVTVLGSRGGGGSGGGGSGGGGSLEMAQVQLVQSGAEVRKPGASVKVSCKTSGYTFSWYAIHWVRQAPGQRLEWMGWINAGNGNTKYSQKFQGRVSLTRDTSASTAYMELSSLRSDDTAVYYCARPDNYGSGGDVFDIWGQGTMVTVSSTSGQAGQHHHHHHGAYPYDVPDYAS
notes: as for B2
On to B8, for which the binding result is listed as “binds” in experiment [1] and “no binding” in experiment [2].

B9: ET200-045 (scFv)
scFv: QPVLTQPPSVSVAPGKTATITCGGNNIGSESVHWYHQKPGQAPVLVIYDDAGRPSGIPERFTGSNSGNTATLTISRVEAGDEADYYCQVWDRNSAQFVFGPGTKVTVLGSRGGGGSGGGGSGGGGSLEMAEVQLVQSGAEVKKPGASVKVSCKASGYTFTSYGISWVRQAPGQGLEWMGWISAYNGNTNYAQKLQGRVTMTTDTSTSTAYMELRSLRSDDTAVYYCARGVHLDWWGQGTLVTVSSTSGQAGQHHHHHHGAYPYDVPDYAS
notes: as for B2
Take B9: the results for the binding result in experiment [1] and in experiment [2] were “binds” and “no binding”, respectively.

B10: ET200-097 (scFv)
scFv: LPVLTQPPSVSVSPGQTAIITCSGDKLGEKYVSWYQQKPGQSPVLVIDQDTRRPSGIPERFSGSNSGTTATLTISGTQAMDEADYYCQAWDRGVVFGGGTKLTVLGSRGGGGSGGGGSGGGGSLEMAEVQLVESGGDLVQPGRSLRLSCAASGFTFNDYAMHWVRQAPGKGLEWVSGISWSGNNIGYADSVKGRFTISRDNAKNSLYLQMNSLRAEDTALYYCAKDSIRYGITWGGFDYWGQGTLVTVSSTSGQAGQHHHHHHGAYPYDVPDYAS
notes: as for B2
Take B10: the binding result was “binds” in experiment [1] and “no binding” in experiment [2].

B11: ET200-098 (scFv)
scFv: QPVLTQPPSVSKGLRQTATLTCTGNSNNVGNLGVAWLQQHQGHPPKLLSYRNNNRPSGISERLSASRSGNTASLTITGLQPEDEADYYCSAWDSSLSAWVFGGGTKLTVLGSRGGGGSGGGGSGGGGSLEMAEVQLVESGGVVVQPGGSLRLSCAASGFTFDDYAMHWVRQAPGKGLEWVSLINWDGGSTYYADSVKGRFTISRDNSKNSLYLQMNSLRAEDTALYYCAKGMGLRAFDYWGQGTLVTVSSTSGQAGQHHHHHHGAYPYDVPDYAS
notes: as for B2
For B11, the binding result in experiment [1] is “binds”; in experiment [2], “no binding”.

B12: ET200-101 (scFv)
scFv: QAVLTQPPSASGAPGQRVTVSCSGSNSNIGSNYVNWYQQFPGTAPKLLMYSSSQRPSGVPDRFSGSKSGTSASLAISGLHSEDEADYYCATWDDSLNAWVFGGGTKLTVLGSRGGGGSGGGGSGGGGSLEMAEVQLVQSGAEVRKPGASVKVSCKTSGYTFTWYAIHWVRQAPGQRLEWMGWINAGSGNTKYSQKFQGRVTLTRDTSASTAYMELSSLRSDDTAVYYCARPNNYGSGGDVFDIWGQGTMVTVSSTSGQAGQHHHHHHGAYPYDVPDYAS
notes: as for B2
For B12, the binding result in experiment [1] is “binds”; in experiment [2], “no binding”.

B13: ET200-006 (scFv)
scFv: SYVLTQPPSVSVAPGKTARITCGGNNIGSKSVHWYQQKPGQAPVVVIHYDSDRPSGIPERFSGSNSGNTATLTISRVEAGDEADYYCQVWDSSSDHPYVFGTGTKVTVLGSRGGGGSGGGGSGGGGSLEMAEVQLVQSGAEVKKPGASVKVSCKASGYTFTTYGISWVRQAPGQGLEWMGWINTYNGHTNYAQKLQGRATMTADTSTNTAYMELRSLRSDDTAVYYCARVIYGSGDYWGQGTLVTVSSTSGQAGQHHHHHHGAYPYDVPDYAS
notes: as for B2
On to B13, for which the binding result in experiment [1] is “binds”; in experiment [2], “no binding”.
